In patent US20240425587A1 (Alector, published 2024):

Assays:
[1] = target: T1, human PILRB, ectopically expressed on 293 cells (human, UniProt Q9UKJ0 20-227); assay: flow cytometry, 293 cells expressing target
T1 construct: also called hB
Experimental: (§1) Briefly, conditioned media containing antibodies were incubated with 293 cells for 30 min at 4° C., washed twice, and then detected with anti-mouse IgG Alexa 647.

[2] = target: cynomolgus PILRA, ectopically expressed on 293 cells (cynomolgus monkey); assay: flow cytometry, 293 cells expressing target
cynomolgus PILRA, ectopically expressed on 293 cells (cynomolgus monkey), sequence (chain, as listed by the source): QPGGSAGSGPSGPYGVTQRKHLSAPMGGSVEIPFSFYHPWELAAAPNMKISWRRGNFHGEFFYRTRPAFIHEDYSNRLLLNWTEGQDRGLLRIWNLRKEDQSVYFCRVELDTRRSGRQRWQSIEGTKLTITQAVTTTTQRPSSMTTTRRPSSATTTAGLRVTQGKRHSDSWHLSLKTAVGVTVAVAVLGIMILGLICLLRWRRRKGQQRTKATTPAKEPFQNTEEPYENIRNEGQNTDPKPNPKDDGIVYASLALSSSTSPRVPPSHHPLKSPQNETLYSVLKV
Experimental: as §1

[3] = target: T2, murine PILRA, ectopically expressed on 293 cells (murine, UniProt Q2YFS3 32-302); assay: flow cytometry, 293 cells expressing target
T2 construct: also called mA
T2 sequence (Q2YFS3 32-302): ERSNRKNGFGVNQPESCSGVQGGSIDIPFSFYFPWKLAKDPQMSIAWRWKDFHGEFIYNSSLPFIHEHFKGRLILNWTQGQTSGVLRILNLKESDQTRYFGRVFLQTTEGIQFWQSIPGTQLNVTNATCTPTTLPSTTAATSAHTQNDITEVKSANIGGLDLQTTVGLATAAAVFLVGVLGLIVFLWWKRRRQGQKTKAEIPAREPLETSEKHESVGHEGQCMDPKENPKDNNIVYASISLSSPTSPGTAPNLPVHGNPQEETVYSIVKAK
Experimental: as §1

[4] = target: T3, human PILRA, G78 variant, ectopically expressed on 293 cells (human, UniProt Q9UKJ1 20-303); assay: flow cytometry, 293 cells expressing target
T3 construct: the cells are labelled G78; also called hA G78 OE; hA
T3 sequence (Q9UKJ1 other isoform, or with tags, fused parts or gaps mutant): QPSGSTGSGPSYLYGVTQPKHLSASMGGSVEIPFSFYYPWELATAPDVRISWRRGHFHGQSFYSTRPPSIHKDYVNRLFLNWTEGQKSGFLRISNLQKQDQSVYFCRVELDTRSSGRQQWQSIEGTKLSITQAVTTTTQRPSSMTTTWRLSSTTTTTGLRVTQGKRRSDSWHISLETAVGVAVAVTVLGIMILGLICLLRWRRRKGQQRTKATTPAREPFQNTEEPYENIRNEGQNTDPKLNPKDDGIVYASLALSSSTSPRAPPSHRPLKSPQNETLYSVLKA
Experimental: as §1

[5] = target: T4, murine PILRB, ectopically expressed on 293 cells (murine, UniProt Q2YFS2 29-224); assay: flow cytometry, 293 cells expressing target
T4 construct: whole, on cells; also called mB
T4 sequence (Q2YFS2 29-224): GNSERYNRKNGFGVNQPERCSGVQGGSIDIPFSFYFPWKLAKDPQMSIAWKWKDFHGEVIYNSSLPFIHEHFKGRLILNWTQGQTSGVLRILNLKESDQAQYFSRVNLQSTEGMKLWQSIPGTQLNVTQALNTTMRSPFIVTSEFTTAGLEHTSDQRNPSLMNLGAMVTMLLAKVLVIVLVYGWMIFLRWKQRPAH
Experimental: as §1

[6] = target: T5, human PILRA, c-term His-Avi tag (human, UniProt Q9UKJ1 20-197, limits assumed); assay: SPR (Biacore), antibody captured, PILRA as analyte
T5 construct: not shown: C-terminal His-Avi tag
T5 sequence (Q9UKJ1 20-197 limits assumed): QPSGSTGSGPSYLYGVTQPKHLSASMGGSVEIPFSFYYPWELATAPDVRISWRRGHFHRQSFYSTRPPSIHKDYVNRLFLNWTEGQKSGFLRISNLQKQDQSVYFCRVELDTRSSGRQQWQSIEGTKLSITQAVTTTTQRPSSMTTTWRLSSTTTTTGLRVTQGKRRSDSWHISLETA
Experimental: Experiments were performed to determine the kinetics of anti-PILRA antibody binding to human […]. The assay is depicted in FIG. 6. A rabbit anti-PILRA was used as a positive control, and H1 LALAPS was used as a negative control. Human PILRA (human PILRA, c-term His-Avi tag, 0.68 mg/mi) was used as the antigen. The running buffer was HBSTE/0.5% BSA, pH 7.4, and the regeneration solution was 10 mM glycine-HCl (pH 2.1). In the assay, antibodies were captured at 10 μg/ml by immobilized anti-huFc or anti-msFc on a Biacore CM5 chip, and human PILRA flowed at 33, 100, and 300 nM. The surface was regenerated after each analyte, and all curves were double-referenced with buffer injections.

T1 sequence (Q9UKJ0 20-227): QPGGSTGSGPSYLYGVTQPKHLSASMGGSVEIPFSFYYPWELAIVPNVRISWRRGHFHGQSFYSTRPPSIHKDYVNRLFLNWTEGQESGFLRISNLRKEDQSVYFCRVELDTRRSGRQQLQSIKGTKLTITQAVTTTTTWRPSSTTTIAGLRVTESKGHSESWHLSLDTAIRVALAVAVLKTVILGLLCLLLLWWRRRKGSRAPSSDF

Binder | binding result [1] | EC50 [2] [µg/mL] | binding result [3] | EC50 [4] [µg/mL] | binding result [5] | EC50 [1] [µg/mL] | Kd [6] [nM] | koff [6] [s⁻¹] | kon [6] [M⁻¹ s⁻¹] | binding result [2]
E14 (antibody, V domains shown, phage campaign) VH: QVQLVQSGAEVKKPGSSVKVSCKASGYTFTNYDINWVRQAPGQGLEWMGGIIPIFGTANYAQKFQGRVTITADESTSTAYMELSSLRSEDTAVYYCTNGVGAGWFDLWGRGTLVTVSS VL: not shown | no binding | 0.6 | no binding | 0.4 | no binding | – | – | – | – | –
E2 (antibody, V domains shown, second hybridoma campaign) VH: EVQLQESGPSLVKPSQTLSLTCSVTGDSITSGYWNWIRKFPGDKLEYMGYISYTGTTYYNPSLKSRVSITRDTSKNQYYLQLHSVTTEDTATYYCARYPYGNFPFDYWGQGTTLTVSS VL: SIVMTQTPKFLLVSAGDRVTITCKASQSVRNDVAWYQQRPGQSPKLLIFYASSRYIGAPDRFTGSGYGTDFTFTISTVQAEDLAVYFCQQDYSSPYTFGGGTTLEIK | – | 92 | no binding | 0.4 | no binding | 2.9 | – | – | – | –
E19 (antibody, V domains shown, phage campaign; same VH/VL as A13) VH: QVQLVQSGAEVKKPGSSVKVSCKASGYLFSDYAMNWVRQAPGQGLEWVGWIIPNSGGTKFAQTFQGRVTITADESTSTAYMELSSLRSEDTAVYYCAREHGVVPADHYYYGMDVWGQGTTVTVSS VL: EIVMTQSPATLSVSPGERATLSCRASQSISSSYLAWYQQKPGQAPRLLIYGASTRATGIPARFSGSGSGTEFTLTISSLQSEDFAVYYCQQYGRFPWTFGQGTKVEIK | – | – | – | – | – | – | 86.1 | 0.009 | 100000 | –
E7 (antibody, V domains shown, phage campaign) VH: EVQLLESGGGLVKPGGSLRLSCAASGFTFSSYWMSWVRQAPGKGLEWVSAISGSGGSTYYADSVKGRFTISRDDSKNTLYLQMNSLKTEDTAVYYCARHEEVTMVRGVIFAGGITNWGQGTTVTVSS VL: EIVMTQSPATLSVSPGERATLSCRASESVTSSYLAWYQQKPGQAPRLLIYGASTRATGIPARFSGSGSGTEFTLTISSLQSEDFAVYYCQQYGSSPLTFGGGTKVEIK | no binding | – | no binding | – | no binding | – | – | – | – | no binding
A13 (antibody, V domains shown, phage campaign; same VH/VL as E19) VH: QVQLVQSGAEVKKPGSSVKVSCKASGYLFSDYAMNWVRQAPGQGLEWVGWIIPNSGGTKFAQTFQGRVTITADESTSTAYMELSSLRSEDTAVYYCAREHGVVPADHYYYGMDVWGQGTTVTVSS VL: EIVMTQSPATLSVSPGERATLSCRASQSISSSYLAWYQQKPGQAPRLLIYGASTRATGIPARFSGSGSGTEFTLTISSLQSEDFAVYYCQQYGRFPWTFGQGTKVEIK | – | 0.8 | no binding | 0.8 | no binding | 6.2 | – | – | – | –
E8 (antibody, V domains shown, phage campaign) VH: QVQLVQSGAEVKKPGASVKVSCKASGYAFTNYDINWVRQAPGQGLEWLGWINPYSGDTNYAQKLQGRVTMTRDTSTSTVYMELSSLRSEDTAVYYCTIPSSYGEYYYYYMDVWGKGTTVTVSS VL: not shown | – | – | no binding | 0.4 | no binding | 2.9 | – | – | – | no binding
E1 (antibody, V domains shown, second hybridoma campaign) VH: EVQLVESGGGLVQPGESLKLSCESNEYEFPSHDMSWVRKTPEKRLELVAAINSDGGSTYYPDTMERRFIISRDNTKKTLYLQMSSLRSEDTALYYCARQLMGTGAMDYWGQGTSVTVSS VL: DIQMTQSSSYLSVSLGGRVTITCKASDHINNWLAWYQQKPGNAPRLLISGATSLETGVPSRFSGSGSGKDYTLSITSLQTEDVATYYCQQYWSTPYTFGGGTKLEIK | no binding | – | no binding | 40.4 | no binding | – | – | – | – | no binding
E3 (antibody, V domains shown, second hybridoma campaign) VH: QAYLQQSGAELVRSGASVKMSCKASGNTFTYYNLHWIRQTPGQGLEWIGYIFPGNGDAYYNQNFKGKATLTADTSSSTAYMQISSLTFEDSAVYFCARSPHYYGSGFDYWGQGTPLTVSS VL: DIQMTQSSSYLSVSLGGGVTITCKASDHINNWLAWYQQKPGNAPRLLISGATSLETGVPSRFSGSGSGKDYTLSITSLQTEDVATYYCQQYWSTPWTFGGGTKLEIK | – | 0.15 | no binding | 0.22 | no binding | 0.78 | – | – | – | –
A11 (antibody, V domains shown, phage campaign; same VH/VL as E17) VH: QVQLVQSGAEVKKPGASVKVSCKASGYTFTSYYMHWVRQAPGQGLEWMGWINPNNGDTNYAQKFQGRVTMTRDTSTSTVYMELSSLRSEDTAVYYCARAGYFDWLLDYYGMDVWGQGTTVTVSS VL: DIVMTQSPLSLPVTPGEPASISCRSSQSLLHSNGYNYLDWYLQKPGQSPQLLIYDASNLETGVPDRFSGSGSGTDFTLKISRVEAEDVGVYYCMQALQTPFGPGTKVDIK | – | 10.8 | – | 0.6 | – | 1.1 | 14.4 | 0.0014 | 96000 | –
E9 (antibody, V domains shown, phage campaign) VH: QVQLVQSGAEVKKPGASVKVSCKASGGTFSSYSINWVRQAPGQGLEWMGWINPHSGATKYAERFQGRVTMTRDTSTSTVYMELSSLRSEDTAVYYCASAEEPYDILTGYYGGDAFDIWGQGTMVTVSS VL: DIQMTQSPSSLSASVGDRVTITCRASQSISKYLNWYQQKPGKAPKLLIYDASNLQAGVPSRFSGSGSGTDFTLTISSLQPEDFATYYCQQANSFPYTFGQGTKLEIK | no binding | – | no binding | 1.2 | no binding | – | – | – | – | no binding
E6 (antibody, V domains shown, phage campaign) VH: QVQLVQSGAEVKKPGASVKVSCKASGGTFSSYAISWVRQAPGQGLEWMGWINPNSGGTNFAQKFQGRVTMTRDTSTSTVYMELSSLRSEDTAVYYCARGSGSYPLDYWGRGTLVTVSS VL: DIQMTQSPSSLSASVGDRVTITCRASQDISTWLAWYQQKPGKAPKLLIYDASSLESGVPSRFSGSGSGTDFTLTISSLQPEDFATYYCQQTYSAPYTFGQGTKLEIK | no binding | – | no binding | – | no binding | – | – | – | – | no binding
E11 (antibody, V domains shown, phage campaign) VH: QVQLVQSGAEVKKPGSSVKVSCKASGGTFSSYDISWVRQAPGQGLEWMGGIIPTFVTPKYAQKFQGRVTITADESTSTAYMELSSLRSEDTAVYYCAREGPKQLEEYYYYYMDVWGKGTTVTVSS VL: DIQMTQSPSSLSASVGDRVTITCRATQAISNSLAWYQQKPGKAPKLLIYAASYLQSGVPSRFSGSGSGTDFTLTISSLQPEDFATYYCQQAYSFPWTFGQGTKLEIK | – | – | no binding | 0.2 | no binding | 5.9 | – | – | – | no binding
E16 (antibody, V domains shown, B-cell cloning campaign (mice)) VH: QVQLKESGPGLVAPSQSLSITCTVSGFSLSGYGVNWVRHLPGKGLEWLGMIWGDGHTDYNSALKSRLSISKDNSKSQVFLKMNSLQTDDTARYYCARDPRFYYGSGPYWYFDVWGAGTTVTVSS VL: DIVMTQSQKFMSTSVGDRVNITCKASQNVGTAVAWYQQKPGQSPKLLIYSASNRYTGVPDRFTGSGSGTDFTLTISNMQSEDLADYFCQQYSSYPLTFAVGTKLELK | – | – | no binding | – | no binding | 3.1 | – | – | – | –
